Reference: paper PMC10251734

Biological target: SARS-CoV-2 Wuhan-Hu-1 spike, soluble trimeric, residues 1-1204, 6 proline mutations (SARS-CoV-2) (UniProt P0DTC2)
Assay: SEC

SARS-CoV-2 Wuhan-Hu-1 spike, soluble trimeric, residues 1-1204, 6 proline mutations (from UniProt P0DTC2 14-1204) (domain or fragment)
stoichiometry N: 3
